According to publication PMC8420505 (2021):

Molecular target: Spike (SARS-CoV-2, UniProt P0DTC2)
Test: SPR

| Binder | Kd |
| --- | --- |
| CD209c (protein) MRMHTRLQFLKRVSNVAYSHGQEQAKKEKVYKEMTQLKSQINRLCRPCPWDWTVFQGNCYFFSKFQQNWNDSVNACRKLDAQLVVIKSDDEQSFLQQTSKEKGYAWMGLSDLKHEGRWHWVDGSHLLFSFMKYWNKGEPNNEWEEDCAEFRGDGWNDAPCTIKKYWICKKSAMSCTEK | 1000 nM |
| Clec4g (protein) MNTGEYNKLGSAIEEVSRGQLGRWECYKQRLFFLVLALLVATVLWALILSTLLSSASSKLRVLLSHQDLLRTNASEQKMTLSSLKDDIGACRNCCSVTKAQLQTTLAEFKDIQAKLMEQESILKELQERVTQDLAKASRDRENIRSELFQALEAVKRQNSSCEQCPPSWLPFQGSCYYFSETQATWDTAQSYCGGQGAHLVIVRGLNEQGFLSQHTRGRGYWLGLRAVRHLNKIQGYRWVDGASLNFSHWNSGEPNDSRGHEDCIMMLHSGLWNDAPCTNERDGWICEKRSSCY | 1600 nM |
